This data set deals with MS2 coat protein. The data set can be described thus: apparent KD of MS2 coat protein; designed switch direction (-1 OFF switch, 1 ON switch): -1; higher = weaker reporter binding. An outline of the steps: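 Apparent KD, taken as the median over clusters for each design, was obtained by curve-fitting normalised cluster fluorescence. Designed RNA switches had been transcribed on Illumina chips by stalled E. coli RNA polymerase and titrated with SNAP-549-labelled MS2 coat protein, doubling from 0.7 or 1.5 nM to 3 µM.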

[1] abbreviates: Eterna round: R95, input ligand: FMN 200 uM.
Where [2] appears, read: Eterna round: R95, input ligand: microRNA oligo, concentration not stated.
Where [3] appears, read: Eterna round: R95, input ligand: none.
[4] abbreviates: input ligand: microRNA oligo, concentration not stated.

In the case of “GAGAAGGUAGGAUAUACGAAGAAAAAGGGUAGAAUAAUAACACAUGAGGAUCACCCAUGUAGAAGGACCAAGAG [Mat - Exclusion 2 - Mod of my Tesla design - D19] (puzzle: Exclusion 2)”, the “apparent KD of MS2 coat protein” value runs as follows: under setting [1], 44.3 nM; under setting [2], 16.7 nM; under setting [3], 20.4 nM.

Regarding “GAGAAGGUAGGAUAUACGAAUAAAAAGGGUAGAAUAAGAACACAUGAGGAUCACCCAUGUAGAAGGACCAAGAG [Mat - Exclusion 2 - Mod of my Tesla design - D21] (puzzle: Exclusion 2)”, the “apparent KD of MS2 coat protein” value by setting is: under setting [1], 32.8 nM; under setting [2], 18.4 nM; under setting [3], 18.5 nM.

In the case of “GAGAAGGUAGGAUAUACGAAUAAAUAGGGUAGGAAGAAGACACAUGAGGAUCACCCAUGUAGAAGGACCAAGAG [Mat - Exclusion 2 - Mod of my Tesla design - D36] (puzzle: Exclusion 2)”, the “apparent KD of MS2 coat protein” value is 29.3 nM under setting [1], 14.6 nM under setting [2] and 17.8 nM under setting [3].

As for “GAGAAGUGAGGAUAUACGAUAAGGAUGAAAGGAAGGAAUGAGUAGAAGGCACAUGAGGAUCACCCAUGUAGAGU [JR_Exclu4_Sub079] (puzzle: Exclusion 4)”, the “apparent KD of MS2 coat protein” value runs as follows: under setting [1], 24.1 nM; under setting [2], 25.1 nM; under setting [3], 26.3 nM.

As for “GAGAAUUUAUAGGAUAUCGUAUGGAUAAUUUAACGAGAAGGAUGAACAUGAGGAUCACCCAUGUGGUAUCAUGG [JL-ex6-3.14] (puzzle: Exclusion 6)”, the “apparent KD of MS2 coat protein” value runs as follows: under setting [1], 270 nM; under setting [2], 280 nM; under setting [3], 247 nM.

With “GAGACGAAAGGAUAUACAUGAGGAUCACCCAUGUAUGAAACAUGAGAAGACACCGCUGGUAGAAGGUUUGGAAA [Eternabot (Original) Solution 46] (Eterna round: R97, puzzle: Exclusion 3)”, the “apparent KD of MS2 coat protein” value (input ligand: FMN 200 uM) is 26.8 nM and the “apparent KD of MS2 coat protein” value (input ligand: none) came to 23.2 nM.

For “GAGAGAAUCUAGGAUAUAUCAAGAGAAGGAGAGAUAGAAGGAGGGACAUGAGGAUCACCCAUGUCUUCGUGUAG [Default title] (Eterna round: R97, puzzle: Exclusion 6)”, the “apparent KD of MS2 coat protein” value is, setting by setting: (input ligand: FMN 200 uM) 15.6 nM; (input ligand: none) 16 nM.

Consider “GAGAGCUGAGGAUAUACAUGAGGAUCACCCAUGUACCACCUUGCCGGCACAGAUCCUUGUAGAAGGCGGCUCUA [Eternabot (L2) Solution 57] (Eterna round: R97, puzzle: Exclusion 3)”, for which the “apparent KD of MS2 coat protein” value amounted to 51.3 nM (input ligand: FMN 200 uM) and 161 nM (input ligand: none).

Consider “GAGAUGUGAGGAUAUCUGGACCGUGGAAGAGCCACGGUCCGAGAGAAGGCACAUGAGGAUCACCCAUGUGAUGA [Inerusce] (puzzle: Exclusion 4)”, for which the “apparent KD of MS2 coat protein” value under setting [2] was 42.8 nM.

For the sequence “GAGCCAUCGUGAGAUGGCUAAAUUACAUGAGGAUCACCCAUGUAGGAUAUCGAUUGCUUUGCAGUCGAGAAGGACAUGUUUAAU [JL ENG3 3.99] (Eterna round: R96, puzzle: Exclusion NG 3)”, the “apparent KD of MS2 coat protein” value is, setting by setting: (input ligand: FMN 200 uM) 67.5 nM; under setting [4], 27.8 nM; (input ligand: none) 32.9 nM.

Turning to “GAGCCAUCGUGAGAUGGCUAACAUACAUGAGGAUCACCCAUGUAGGAUAUCGAUUGCUUUGCAGUCGAGAAGGACAUGUUUAAU [JL ENG3 3.96] (Eterna round: R96, puzzle: Exclusion NG 3)”, the “apparent KD of MS2 coat protein” value under setting [4] was found to be 19.1 nM.

For the sequence “GAGCUGUGAGGAUAUACAUGAGGAUCACCCAUGUUAAGGAAGUGGUGAAUAAUUUAGUGUAGAAGGCACUUAUU [JR_Ex3_Sub023] (Eterna round: R97, puzzle: Exclusion 3)”, the “apparent KD of MS2 coat protein” value is, setting by setting: (input ligand: FMN 200 uM) 530 nM; (input ligand: none) 116 nM.

In the case of “GAGGACUGAGGAUAUGCGUUGGUACCUCGUAGUAAGCAAAGACAUGAGGAUCACCCAUGUAGAAGGCGGAAAAG [Xegeinenxe] (puzzle: Exclusion 2)”, the “apparent KD of MS2 coat protein” value is, setting by setting: under setting [1], 150 nM; under setting [2], 58.6 nM; under setting [3], 52.6 nM.

With “GAGGAGCAAGGAUAUACGAGGAUAUGGUAGGUUGGAGAGUGACAUGAGGAUCACCCAUGUAGAAGGUGCGAGGG [JR_Exclu2_Sub098] (puzzle: Exclusion 2)”, under setting [2], the “apparent KD of MS2 coat protein” value stood at 55.5 nM.

For the sequence “GAGUAGGGAGGAUAUACGUGCUCAAUCCCGCGAAGCGGGAAACAUGAGGAUCACCCAUGUAGAAGGCCCAUAAA [Inceveus] (puzzle: Exclusion 2)”, the “apparent KD of MS2 coat protein” value is, setting by setting: under setting [1], 88.4 nM; under setting [2], 171 nM; under setting [3], 185 nM.

For “GAGUGACAUGAGGAUCACCCAUGUGAGGAUAUCGGACGGACCAAGUUAACAUCCGCCGCGAGAAGGCACAUCGG [Exclusion 1 V23] (puzzle: Exclusion 1)”, the “apparent KD of MS2 coat protein” value under setting [2] came to 104 nM.

Turning to “GAGUGACAUGAGGAUCACCCAUGUGAGGAUAUCGGACGGACCUAGUUAACUUCCGCCGCGAGAAGGCACAUCGG [Exclusion 1 V23] (Eterna round: R96, puzzle: Exclusion 1)”, the “apparent KD of MS2 coat protein” value reads like this: (input ligand: FMN 200 uM) 75.2 nM; under setting [4], 45.6 nM; (input ligand: none) 84 nM.

Regarding “GAGUGACAUGAGGAUCACCCAUGUGAGGAUAUCGGACGGACCUAGUUAACUUCCGCCGCGAGAAGGCACAUCGG [Exclusion 1 V23] (puzzle: Exclusion 1)”, the “apparent KD of MS2 coat protein” value under setting [2] was found to be 70.2 nM.

Consider “GAGUGACAUGAGGAUCACCCAUGUGAGGAUAUCGGACGGACCUAGUUAGCUUCCGCCGCGAGAAGGCACAUCGG [Exclusion 1 V24] (puzzle: Exclusion 1)”, for which, under setting [2], the “apparent KD of MS2 coat protein” value stood at 63.1 nM.

As for “GAGUUAACAUGAGGAAUAUACAUGAGGAUCACCCAUGUUAACAAAUUUUUUGCUCGUCUUAUAACAACAAUUAACUC [Alarm 4 - Jieux - Sensor, turn-off variant 1] (Eterna round: R97, puzzle: Sensor, turn-off variant 1)”, the “apparent KD of MS2 coat protein” value by setting is: (input ligand: FMN 200 uM) 434 nM; (input ligand: none) 206 nM.

Regarding “GAUAAACAUGAGGAUCACCCAUGUGAGGAUAUGCGUACGUUGUCCGUAGGCGACGUGCGCAGAAGGCGCAAGGU [Mat - Mod of JL D99] (puzzle: Exclusion 1)”, the “apparent KD of MS2 coat protein” value under setting [2] was 73 nM.

For the sequence “GAUACACAUGAGGAUCACCCAUGUGAGGAUAUGCGUACGUUGUCCGUAGGCGACGUGCGCAGAAGGCGCUUGGU [Mat - Mod of JL D98] (puzzle: Exclusion 1)”, the “apparent KD of MS2 coat protein” value under setting [2] amounted to 57.3 nM.

For the sequence “GAUACACAUGAGGAUCACCCAUGUUAGGAUAUUAGCGGGAAAGCUGUCAAAACGCCGAUGAGAAGGAACAGGAG [Excls1-IX] (puzzle: Exclusion 1)”, under setting [2], the “apparent KD of MS2 coat protein” value was found to be 31.9 nM.

For “GAUAGAGAGCAGGAUAUCUUAGAUAUGUAAUAUAGAGAAGGGCUCACAUGAGGAUCACCCAUGUGGUCCUAGAU [JL Dibiri mod 14] (puzzle: Exclusion 6)”, the “apparent KD of MS2 coat protein” value by setting is: under setting [1], 94 nM; under setting [2], 15.9 nM; under setting [3], 16.1 nM.

Take “GAUCAACAUGAGGAUCACCCAUGUGAGGAUAUGAUACUAUGUACUUCGGUACAUAGUAUCAGAAGGCAUGUGAA [Ex1-3: 77] (puzzle: Exclusion 1)”: the “apparent KD of MS2 coat protein” value under setting [2] is 80.1 nM.

With “GAUCAACAUGAGGAUCACCCAUGUGAGGAUAUGUAUCAUAGAUCUUCGGAUCUAUGAUACAGAAGGCAUGUGGA [Ex1-3: 100c] (puzzle: Exclusion 1)”, the “apparent KD of MS2 coat protein” value under setting [2] turned out to be 144 nM.

Consider “GAUCACUGAGGAUAUACACAGAUACAAAGUAUCUGACGGUGACAUGAGGAUCACCCAUGUAGAAGGCAGAGGUC [Omei Ex2 B2] (Eterna round: R97, puzzle: Exclusion 2)”, for which the “apparent KD of MS2 coat protein” value reads like this: (input ligand: FMN 200 uM) 360 nM; (input ligand: none) 696 nM.

In the case of “GAUCAGUAAGGAUAUACAUGAGGAUCACCCAUGUGGAUGGCCGCGCAUUUCCAUUCAGGUAGAAGGUACUGAGU [Eternabot (L1) Solution 94] (Eterna round: R97, puzzle: Exclusion 3)”, the “apparent KD of MS2 coat protein” value is, setting by setting: (input ligand: FMN 200 uM) 54.3 nM; (input ligand: none) 36.8 nM.

In the case of “GAUCGCCGUGUCAGGAUAUCUUGUGUACCCACGUUAGAGAAGGGACAUGAGGAUCACCCAUGUACCCUGGUUCU [Brourd's mod of Exclusion 4 (MOD3 of Nando's BmEX4 C.21)] (Eterna round: R97, puzzle: Brourd's mod of Exclusion 4)”, the “apparent KD of MS2 coat protein” value amounted to 18.7 nM (input ligand: FMN 200 uM) and 17.8 nM (input ligand: none).

As for “GAUCUGACAGGAUAUACAUGAGGAUCACCCAUGUACGAGCUAGCGAAAGCUAGCUCAGGUAGAAGGGUCAGAUC [Ex3 dot plot directed v5] (puzzle: Exclusion 3)”, the “apparent KD of MS2 coat protein” value under setting [2] stood at 11.6 nM.

On to “GAUGAGGGAGUGAGGAUAUAUACCGGCUCACCGGAGUAGAAGGCACAUGAGGAUCACCCAUGUGACCUUAACCU [Eternabot (L2) Solution 92] (Eterna round: R97, puzzle: Brourd's mod of Exclusion 4)”, for which the “apparent KD of MS2 coat protein” value is, setting by setting: (input ligand: FMN 200 uM) 15.3 nM; (input ligand: none) 14.1 nM.

For the sequence “GAUGGACAUGAGGAUCACCCAUGUAAGGAUAUUGAUUAUGGUUAUAAAUAAUUAUGGUCAAGAAGGUACUCGUC [-17.8, -14.8 kcal, A 34%] (Eterna round: R97, puzzle: Exclusion 1)”, the “apparent KD of MS2 coat protein” value (input ligand: FMN 200 uM) came to 114 nM and the “apparent KD of MS2 coat protein” value (input ligand: none) was 147 nM.

In the case of “GAUUACUGCAAGCUUUGGAACAUGAGGAUCACCCAUGUUCGUCUUAUUGAUCUAGGUACGCUGACGUACCUAGAUCU [JL-sv1-2.30 Brourd mod] (puzzle: Sensor v3, turn-off variant 1)”, the “apparent KD of MS2 coat protein” value reads like this: under setting [1], 15.5 nM; under setting [2], 16.2 nM; under setting [3], 13.6 nM.

Values taken from the supplement of paper PMC9170038.
